The record followed here is patent publication US20220098295A1 (ALLERGAN, published 2022).

Test [1] addresses T1, human PDGF-BB (R&D system, 220-BB) (human, UniProt P01127 82-190, biotinylated in the blocking ELISA of Example 4 (sites not given); unlabelled in the SPR assay).
T1 construct: Bought protein (R&D Systems), a homodimer of two B subunits; also called human biotinylated PDGF-BB
As to the kind of experiment: Real-time sensorgram with response in nm (assay not given). Sample 'P36F3', association with rhPDGF BB at 25 - 500 nM. The column is headed kdis(1/s).

Test [2] deals with T1, human PDGF-BB (R&D system, 220-BB). Briefly: Real-time sensorgram with response in nm (assay not given). Sample 'P36F3', association with rhPDGF BB at 25 - 500 nM.
Test [3] shares this target. As to the kind of experiment: blocking ELISA: HCAb dilutions with 2 nM biotinylated PDGF-BB, binding to coated PDGFRβ-Fc. The procedure:
Two micrograms per milliliter per well of PDGFRβ-Fc (R & D Systems) was coated on 96 well microtiter plates overnight at 4° C. In a separate plate, serial dilutions of anti-PDGF BB HCAb were incubated with 2 nM human biotinylated PDGF-BB (R&D Systems) for 1 hr. One hundred microliters of the anti-PDGF BB HCAb-PDGF-BB mix were applied to the PDGFRβ-Fc-coated microtiter plate for 1 hr. The detection antibody (anti-biotin HRP) was then added for 1 hr and the ELISA was developed with a chemiluminescent HRP substrate and read by an ELISA plate reader. Anti-PDGF BB HCAb blocked the binding of PDGF-BB to its receptor PDGFRβ and IC₅₀ of anti-PDGF BB HCAb blocking to PDGFRβ is summarized in Table 4.
(In an ELISA, binding on a coated surface is turned into a signal by an enzyme label.)

For test [4] the target is unchanged. As to the kind of experiment: SPR (Biacore T200, 25 C), HCAb captured by anti-human IgG Fc, PDGF-BB as analyte. The procedure:
(§1) Anti-human IgG Fc antibody was directly immobilized across CM5 biosensor chip (GE Healthcare) using a standard coupling kit (GE Healthcare, BR-1008-39) according to the manufacturer's instructions. Purified anti-PDGF-BB HCAb molecules were diluted in running buffer HBS-EPB (GE Healthcare, BR-1006-69) at 0.5 to 1.0 μg/ml and captured on the coupled across anti-human IgG Fc surface. A 2-fold serial dilution of human PDGF-BB (R&D system, 220-BB) range from 0.625 to 10 nM were injected over anti-PDGF-BB HCAb captured surface at a flow rate of 30 μl/min. Associating rates (Ka) and dissociation rates (Kd) were calculated based on 1:1 Langmuir binding model with BIAcore T200 evaluation software version 2.0 (GE Healthcare). The equilibrium dissociation constant (Kd) was determined by the ratio Koff/Kon.

For test [5] the target is unchanged. As to the kind of experiment: SPR (Biacore T200, 25 C), HCAb captured by anti-human IgG Fc, PDGF-BB 0.625-10 nM as analyte, 1:1 model. The procedure: as §1
Test [6] has the same target. Briefly: SPR (Biacore T200, 25 C), HCAb captured by anti-human IgG Fc, PDGF-BB as analyte; * over the limit of detection. The procedure: as §1
Background: SPR reads the build-up and loss of mass on a sensor chip optically.

T1 sequence (P01127 82-190 limits assumed): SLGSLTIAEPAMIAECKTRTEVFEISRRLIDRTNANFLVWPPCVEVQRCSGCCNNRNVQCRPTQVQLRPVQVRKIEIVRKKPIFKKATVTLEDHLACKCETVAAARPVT

B1: P36F3 (bispecific antibody, part only; not given: linker, domain order, Fc, V domains shown, not shown: another chain or arm of the molecule; a dimerising Fc or GST; small tags and cut ends)
VH 1: QVQLVESGGGLVQPGGSLRLSCAASGFTFSSYWMHWVRQAPGKGLVWVSRINSDGSSTSYADSVKGRFTISRDNAKNTLYLQMNSLRAEDTAVYYCAKDKGITMVRGVIHFDYWGQGTLVTVSS
VH 2: QVQLVESGGGLVQPGGSLRLSCAASGFTFSSYWMHWVRQAPGKGLVWVSRINSDGSSTSYADSVKGRFTISRDNAKNTLYLQMNSLRAEDTAVYYCAREGYSSGGQFDYWGQGTLVTVSS
On to B1, for which the koff in test [1] worked out at 1.1e-06 s⁻¹. In test [2], this molecule showed a Kd of 0.0434 nM and a kon of 25300 M⁻¹ s⁻¹.

B2: anti-PDGF BB HCAb P36F3 (antibody, IgG1, V domains shown)
VH: QVQLVESGGGLVQPGGSLRLSCAASGFTFSSYWMHWVRQAPGKGLVWVSRINSDGSSTSYADSVKGRFTISRDNAKNTLYLQMNSLRAEDTAVYYCAKDKGITMVRGVIHFDYWGQGTLVTVSS
notes: Heavy chain only antibody, no light chain; VH fused to IgG1 hinge and CH2/CH3; not shown: human IgG1 hinge region and CH2/CH3 regions (no CH1)
B2 came in with an IC50 in test [3] of 1.71 nM. In test [4], this molecule gave a Kd of 8.83 pM and a koff of 8.73e-06 s⁻¹. In test [5], this molecule showed a kon of 988000 M⁻¹ s⁻¹.

B3: anti-PDGF BB HCAb P36E10 (antibody, IgG1, V domains shown)
VH: QVQLLESGGGLVQPGGSLRLSCAASGFTFSSYAMSWVRQAPGKGLEWVSAISGSGGSTYYADSVKGRFTISRDNSKNTLYLQMNSLRAEDTAVYYCASNSGFFTLSGFIRYKFWGQGTLVTVSS
notes: as for B2
Consider B3, for which the IC50 in test [3] was 21.4 nM. In test [4], this molecule registered a Kd of 455 pM and a koff of 1.92e-05 s⁻¹. The molecule also gave a kon in test [5] of 42100 M⁻¹ s⁻¹.

B4: anti-PDGF BB HCAb P36E8 (antibody, IgG1, V domains shown)
VH: QVQLLESGGGLVQPGGSLRLSCAASGFTFSSYAMSWVRQAPGKGLEWVSAISGSGGSTYYADSVKGRFTISRDNSKNTLYLQMNSLRAEDTAVYYCASNSELFKVNGVIRYDFWGQGTLVTVSS
notes: as for B2
As for B4, the IC50 in test [3] was 5.52 nM. In test [5], this molecule showed a kon of 243000 M⁻¹ s⁻¹. In test [6], the Kd was less than 4.12 pM and the koff is less than 1e-06 s⁻¹.

B5: anti-PDGF BB HCAb P36C12 (antibody, IgG1, V domains shown)
VH: QVQLLESGGGLVQPGGSLRLSCAASGFTFSSYAMSWVRQAPGKGLEWVSAISGSGGSTYYADSVKGRFTISRDNSKNTLYLQMNSLRAEDTAVYYCARNSEIFMVKGVIQYNSWGQGTLVTVSS
notes: Heavy chain only antibody, no light chain; VH fused to IgG1 hinge and CH2/CH3; It is printed in places as P36012, which looks like a misprint of P36C12; also called P36012; not shown: human IgG1 hinge region and CH2/CH3 regions (no CH1)
For the molecule B5, the IC50 in test [3] amounted to 1.07 nM. In test [5], this molecule showed a kon of 1e+06 M⁻¹ s⁻¹. In test [6], this molecule registered a Kd of less than 1 pM and a koff of less than 1e-06 s⁻¹.

B6: anti-PDGF BB HCAb P36A3 (antibody, V domains shown)
VH: QVQLLESGGGLVQPGGSLRLSCAASGFTFSSYAMSWVRQAPGKGLEWVSAISGSGGSTYYADSVKGRFTISRDNSKNTLYLQMNSLRAEDTAVYYCASNSVFSTLKGFLQYKFWGQGTLVTVSS
notes: Heavy chain only antibody, no light chain; VH fused to IgG1 hinge and CH2/CH3 and made in CHO cells as fully human recombinant HCAb; It was captured by anti-human IgG Fc in the SPR assay; not shown: human IgG1 hinge region and CH2/CH3 regions (no CH1)
B6 showed an IC50 in test [3] of 7.75 nM. For the same molecule, the kon in test [5] turned out to be 219000 M⁻¹ s⁻¹. In addition, in test [6], the Kd was less than 4.57 pM and the koff is less than 1e-06 s⁻¹.

B7: anti-PDGF BB HCAb P36A4 (antibody, IgG1, V domains shown)
VH: QVQLLESGGGLVQPGGSLRLSCPASGFTFSSYAMSWVRQAPGKGLEWVSAISGSGGSTYYADSVKGRFTISRDNSKNTLYLQMNSLRAEDTAVYYCARNNGIFMFRGVIRYKSWGQGTLVTVSS
notes: as for B2
In test [3], B7 yielded an IC50 of 3.77 nM. In test [4], binding was put at a Kd of 1.79 pM and the koff amounted to 1.17e-06 s⁻¹. The molecule further came in with a kon in test [5] of 654000 M⁻¹ s⁻¹.

As usually defined, the koff is the first-order rate constant of dissociation. A higher koff goes with fast dissociation. A word on the Kd: it is the concentration at which binding is half-saturated. The low end stands for tighter binding, the high end for weaker binding. Broadly, the kon is the rate constant with which the complex forms. A word on the IC50: it is the point on the concentration scale where inhibition reaches its midpoint. Low readings indicate inhibition by little substance, high ones a need for much substance.
